The text below walks through data of patent publication EP4299124A1 (UNIVERSITE DE MONTPELLIER, dated 2024).

The labels stand for the following.
B1: IGF-1252 (IGF-1159 HcAb IGF-1168) (bispecific antibody)
chain: QVQLVQSGGGLVQAGGSLRLSCAASGRTFSSFAMAWFRQAPGKEREFVAAISWSGSTGHADSVKGRFTITRDNAKNTVFLQMNSLKPEDTAVYYCALGKGSSYYYSPSGYDYWGQGTQVTVSSEPKIPQPQPKPQPQPQPQPQPKPQPKPEPQVQLVQSGGGLVQAGGSLRLSCAASVRFFSINTMGWYRQAPGKQRELVADITSSGSTNYADSGKGRFTISRDNAKNTVYLQMNRLKPEDTAVYYCHADYKYTTHNTAWGQGTQVTVSS
B2: biparatopic IGF1202 (construct IGF1168-linker sequence L1-IGF1159) (bispecific antibody)
chain: QVQLVQSGGGLVQAGGSLRLSCAASVRFFSINTMGWYRQAPGKQRELVADITSSGSTNYADSGKGRFTISRDNAKNTVYLQMNRLKPEDTAVYYCHADYKYTTHNTAWGQGTQVTVSSEPKIPQPQPKPQPQPQPQPQPKPQPKPEPQVQLVQSGGGLVQAGGSLRLSCAASGRTFSSFAMAWFRQAPGKEREFVAAISWSGSTGHADSVKGRFTITRDNAKNTVFLQMNSLKPEDTAVYYCALGKGSSYYYSPSGYDYWGQGTQVTVSSLEHHHHHH
B3: IGF-1251 (IGF-1159 GS IGF-1168) (bispecific antibody)
chain: QVQLVQSGGGLVQAGGSLRLSCAASGRTFSSFAMAWFRQAPGKEREFVAAISWSGSTGHADSVKGRFTITRDNAKNTVFLQMNSLKPEDTAVYYCALGKGSSYYYSPSGYDYWGQGTQVTVSSGGGGSGGGGSGGGGSQVQLVQSGGGLVQAGGSLRLSCAASVRFFSINTMGWYRQAPGKQRELVADITSSGSTNYADSGKGRFTISRDNAKNTVYLQMNRLKPEDTAVYYCHADYKYTTHNTAWGQGTQVTVSS
B4: IGF-1201 (IGF-1168 GS IGF-1159) (bispecific antibody)
chain: QVQLVQSGGGLVQAGGSLRLSCAASVRFFSINTMGWYRQAPGKQRELVADITSSGSTNYADSGKGRFTISRDNAKNTVYLQMNRLKPEDTAVYYCHADYKYTTHNTAWGQGTQVTVSSGGGGSGGGGSGGGGSQVQLVQSGGGLVQAGGSLRLSCAASGRTFSSFAMAWFRQAPGKEREFVAAISWSGSTGHADSVKGRFTITRDNAKNTVFLQMNSLKPEDTAVYYCALGKGSSYYYSPSGYDYWGQGTQVTVSS
B5: IGF-1261 (IGF-1168 GS IGF-1168) (VHH)
chain: QVQLVQSGGGLVQAGGSLRLSCAASVRFFSINTMGWYRQAPGKQRELVADITSSGSTNYADSGKGRFTISRDNAKNTVYLQMNRLKPEDTAVYYCHADYKYTTHNTAWGQGTQVTVSSGGGGSGGGGSGGGGSQVQLVQSGGGLVQAGGSLRLSCAASVRFFSINTMGWYRQAPGKQRELVADITSSGSTNYADSGKGRFTISRDNAKNTVYLQMNRLKPEDTAVYYCHADYKYTTHNTAWGQGTQVTVSS
notes: Used His-tagged in the assay
B6: IGF-1159 nanobody (VHH)
VHH: QVQLVQSGGGLVQAGGSLRLSCAASGRTFSSFAMAWFRQAPGKEREFVAAISWSGSTGHADSVKGRFTITRDNAKNTVFLQMNSLKPEDTAVYYCALGKGSSYYYSPSGYDYWGQGTQVTVSS
B7: IGF-1262 (IGF-1168 HcAb IGF-1168) (VHH)
chain: QVQLVQSGGGLVQAGGSLRLSCAASVRFFSINTMGWYRQAPGKQRELVADITSSGSTNYADSGKGRFTISRDNAKNTVYLQMNRLKPEDTAVYYCHADYKYTTHNTAWGQGTQVTVSSEPKIPQPQPKPQPQPQPQPQPKPQPKPEPQVQLVQSGGGLVQAGGSLRLSCAASVRFFSINTMGWYRQAPGKQRELVADITSSGSTNYADSGKGRFTISRDNAKNTVYLQMNRLKPEDTAVYYCHADYKYTTHNTAWGQGTQVTVSS
notes: Used His-tagged in the assay

T1 sequence (P31421 19-872): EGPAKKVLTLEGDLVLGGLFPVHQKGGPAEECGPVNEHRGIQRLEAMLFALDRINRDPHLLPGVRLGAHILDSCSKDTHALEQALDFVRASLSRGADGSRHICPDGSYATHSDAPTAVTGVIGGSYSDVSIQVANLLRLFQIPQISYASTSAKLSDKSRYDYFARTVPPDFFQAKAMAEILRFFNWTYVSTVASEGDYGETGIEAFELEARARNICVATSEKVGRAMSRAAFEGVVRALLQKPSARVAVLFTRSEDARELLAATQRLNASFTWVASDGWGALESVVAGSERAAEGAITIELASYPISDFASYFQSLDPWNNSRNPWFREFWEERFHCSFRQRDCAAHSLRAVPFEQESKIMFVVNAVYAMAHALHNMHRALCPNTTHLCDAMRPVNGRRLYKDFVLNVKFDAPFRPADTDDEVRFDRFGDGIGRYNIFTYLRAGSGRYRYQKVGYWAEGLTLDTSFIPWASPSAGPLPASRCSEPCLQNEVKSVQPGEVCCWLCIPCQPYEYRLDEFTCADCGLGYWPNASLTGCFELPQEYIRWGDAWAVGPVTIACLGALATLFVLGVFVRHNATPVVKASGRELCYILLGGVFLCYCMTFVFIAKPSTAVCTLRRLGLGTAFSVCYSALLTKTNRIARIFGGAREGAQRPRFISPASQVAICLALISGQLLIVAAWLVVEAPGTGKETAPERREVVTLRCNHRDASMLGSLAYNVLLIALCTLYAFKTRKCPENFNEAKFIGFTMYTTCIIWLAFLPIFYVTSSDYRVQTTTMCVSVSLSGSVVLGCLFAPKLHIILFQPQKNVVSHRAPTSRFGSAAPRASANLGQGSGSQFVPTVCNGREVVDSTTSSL

The first assay concerns the target T1, rat mGlu2 SNAP-tagged receptor (rat, UniProt P31421 19-872, SNAP tag labelled with SNAP-Lumi4-Tb). Nature of the assay: TR-FRET on HEK-293 cells with SNAP-tagged rat mGlu2, anti-6His-d2; inactive conformation.
For B1, the pKd is 8.49 pKd.

B2 returned a pKd of 8.87 pKd.

In turn, B3 displayed a pKd of 8.54 pKd.

B4 displayed a pKd of 8.95 pKd.

In another assay the target is T1, rat mGlu2 SNAP-tagged receptor. Nature of the assay: cell-based or functional assay.
Take B1: the PAM effect G protein coupling, pEC50 worked out at 7.94 pEC50.

Consider B2, for which the PAM effect G protein coupling, pEC50 stood at 8.81 pEC50.

Molecule B3 displayed a PAM effect G protein coupling, pEC50 of 7.65 pEC50.

B5: the “PAM effect G protein coupling, pEC50” value came to 7.62 pEC50.

As for B6, the “PAM effect G protein coupling, pEC50” value amounted to 6.96 pEC50.

Take B7: the “PAM effect G protein coupling, pEC50” value came to 7.2 pEC50.

In turn, B4 displayed a PAM effect G protein coupling, pEC50 of 8.25 pEC50.

For a further assay the target is unchanged. Nature of the assay: TR-FRET on HEK-293 cells with SNAP-tagged rat mGlu2, anti-6His-d2; active conformation.
Molecule B1 gave a pKd of 8.77 pKd.

Regarding B2, the pKd worked out at 9.27 pKd.

Molecule B3 displayed a pKd of 8.99 pKd.

Consider B5, for which the pKd was 8.51 pKd.

On to B6, for which the pKd came to 8.46 pKd.

As for B7, the pKd is 8.23 pKd.

B4 registered a pKd of 9.34 pKd.
